{"source": "patent US20120270784A1", "about": "(THERATECHNOLOGIES, published 2012)", "data": [{"biological_target": "T1, human GRF receptor (human, UniProt Q02643 23-423)", "T1 sequence (looked up)": "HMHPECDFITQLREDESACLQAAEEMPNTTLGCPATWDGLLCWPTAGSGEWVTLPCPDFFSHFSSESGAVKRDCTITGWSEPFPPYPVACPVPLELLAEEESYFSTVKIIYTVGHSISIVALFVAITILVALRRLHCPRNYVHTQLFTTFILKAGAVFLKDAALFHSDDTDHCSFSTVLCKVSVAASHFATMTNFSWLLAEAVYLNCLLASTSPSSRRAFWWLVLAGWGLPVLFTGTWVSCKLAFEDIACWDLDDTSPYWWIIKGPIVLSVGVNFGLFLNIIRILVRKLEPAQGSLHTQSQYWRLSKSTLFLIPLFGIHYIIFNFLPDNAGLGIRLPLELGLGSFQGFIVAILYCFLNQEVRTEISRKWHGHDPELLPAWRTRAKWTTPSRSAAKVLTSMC", "experiment": "cell-based or functional assay", "units": {"EC50 as assessed by alkaline phosphatase (AP) induction": "nM"}, "values": [{"binder": "YXDAIFTDSYRKVLAQLKARQDILXR (HELM PEPTIDE1{Y.[dA].D.A.I.F.T.D.S.Y.R.K.V.L.A.Q.L.K.A.R.Q.D.I.L.[Aib].R.[am]}$$$$V2.0; N-terminus assumed; SMILES CC[C@H](C)[C@H](NC(=O)[C@H](C)NC(=O)[C@H](CC(=O)O)NC(=O)[C@@H](C)NC(=O)[C@@H](N)Cc1ccc(O)cc1)C(=O)N[C@@H](Cc1ccccc1)C(=O)N[C@H](C(=O)N[C@@H](CC(=O)O)C(=O)N[C@@H](CO)C(=O)N[C@@H](Cc1ccc(O)cc1)C(=O)N[C@@H](CCCNC(=N)N)C(=O)N[C@@H](CCCCN)C(=O)N[C@H](C(=O)N[C@@H](CC(C)C)C(=O)N[C@@H](C)C(=O)N[C@@H](CCC(N)=O)C(=O)N[C@@H](CC(C)C)C(=O)N[C@@H](CCCCN)C(=O)N[C@@H](C)C(=O)N[C@@H](CCCNC(=N)N)C(=O)N[C@@H](CCC(N)=O)C(=O)N[C@@H](CC(=O)O)C(=O)N[C@H](C(=O)N[C@@H](CC(C)C)C(=O)NC(C)(C)C(=O)N[C@@H](CCCNC(=N)N)C(N)=O)[C@@H](C)CC)C(C)C)[C@@H](C)O)", "note": "[Y-a-DAIFTDSYRKVLAQLKARQDIL-aib-R-NH2 (SEQ ID NO: 22)]", "EC50 as assessed by alkaline phosphatase (AP) induction": 0.72}, {"binder": "YXDAIFTDSYRKVLAQLXARQDILSX (HELM PEPTIDE1{Y.[dA].D.A.I.F.T.D.S.Y.R.K.V.L.A.Q.L.[Orn].A.R.Q.D.I.L.S.[dR].[am]}$$$$V2.0; N-terminus assumed; SMILES CC[C@H](C)[C@H](NC(=O)[C@H](C)NC(=O)[C@H](CC(=O)O)NC(=O)[C@@H](C)NC(=O)[C@@H](N)Cc1ccc(O)cc1)C(=O)N[C@@H](Cc1ccccc1)C(=O)N[C@H](C(=O)N[C@@H](CC(=O)O)C(=O)N[C@@H](CO)C(=O)N[C@@H](Cc1ccc(O)cc1)C(=O)N[C@@H](CCCNC(=N)N)C(=O)N[C@@H](CCCCN)C(=O)N[C@H](C(=O)N[C@@H](CC(C)C)C(=O)N[C@@H](C)C(=O)N[C@@H](CCC(N)=O)C(=O)N[C@@H](CC(C)C)C(=O)N[C@@H](CCCN)C(=O)N[C@@H](C)C(=O)N[C@@H](CCCNC(=N)N)C(=O)N[C@@H](CCC(N)=O)C(=O)N[C@@H](CC(=O)O)C(=O)N[C@H](C(=O)N[C@@H](CC(C)C)C(=O)N[C@@H](CO)C(=O)N[C@H](CCCNC(=N)N)C(N)=O)[C@@H](C)CC)C(C)C)[C@@H](C)O)", "note": "[Y-a-D-A-I-F-T-D-S-Y-R-K-V-L-A-Q-L-O-A-R-Q-D-I-L-S-r-NH2 (SEQ ID NO: 23)]", "EC50 as assessed by alkaline phosphatase (AP) induction": 1.14}, {"binder": "YADAIFTDSYRKVLAQLXARQDILSX (HELM PEPTIDE1{[CC/C=C/CC(=O)[*:2]].Y.A.D.A.I.F.T.D.S.Y.R.K.V.L.A.Q.L.[Orn].A.R.Q.D.I.L.S.[dR].[am]}$$$$V2.0; SMILES CC/C=C/CC(=O)N[C@@H](Cc1ccc(O)cc1)C(=O)N[C@@H](C)C(=O)N[C@@H](CC(=O)O)C(=O)N[C@@H](C)C(=O)N[C@H](C(=O)N[C@@H](Cc1ccccc1)C(=O)N[C@H](C(=O)N[C@@H](CC(=O)O)C(=O)N[C@@H](CO)C(=O)N[C@@H](Cc1ccc(O)cc1)C(=O)N[C@@H](CCCNC(=N)N)C(=O)N[C@@H](CCCCN)C(=O)N[C@H](C(=O)N[C@@H](CC(C)C)C(=O)N[C@@H](C)C(=O)N[C@@H](CCC(N)=O)C(=O)N[C@@H](CC(C)C)C(=O)N[C@@H](CCCN)C(=O)N[C@@H](C)C(=O)N[C@@H](CCCNC(=N)N)C(=O)N[C@@H](CCC(N)=O)C(=O)N[C@@H](CC(=O)O)C(=O)N[C@H](C(=O)N[C@@H](CC(C)C)C(=O)N[C@@H](CO)C(=O)N[C@H](CCCNC(=N)N)C(N)=O)[C@@H](C)CC)C(C)C)[C@@H](C)O)[C@@H](C)CC)", "note": "[Trans-3-hexenoyl-Y-A-D-A-I-F-T-D-S-Y-R-K-V-L-A-Q-L-O-A-R-Q-D-I-L-S-r-NH2 (SEQ ID NO: 24)]", "EC50 as assessed by alkaline phosphatase (AP) induction": 1.18}]}]}
